Patent US20080118508A1 (published 2008)

Molecular target: T1, human C5a receptor (C5aR) on purified human neutrophils (human, UniProt P21730 1-350)
T1 construct: whole, on cells
T1 sequence (looked up): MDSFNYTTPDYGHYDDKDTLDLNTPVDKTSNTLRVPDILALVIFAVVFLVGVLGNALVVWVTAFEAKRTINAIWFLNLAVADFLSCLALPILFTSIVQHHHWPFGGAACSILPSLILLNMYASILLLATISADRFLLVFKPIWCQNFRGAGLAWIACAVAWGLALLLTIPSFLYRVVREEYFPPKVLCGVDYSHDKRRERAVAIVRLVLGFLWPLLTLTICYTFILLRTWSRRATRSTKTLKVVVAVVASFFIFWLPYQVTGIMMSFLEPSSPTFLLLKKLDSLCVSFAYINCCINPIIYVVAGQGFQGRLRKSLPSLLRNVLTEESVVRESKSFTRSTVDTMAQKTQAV
Assay: displacement of 125I-C5a from purified human neutrophils by unlabeled recombinant human C5a
Experimental: MAb137-26 was serially diluted in 1.5 ml Eppendorf centrifuged tubes with a binding buffer (1% BSA in RPMI1640 medium) to give final concentrations ranging from 640 nM to 0.04 nM. […] Purified recombinant human C5a (Sigma, St. Louis, Mo. was used as positive control, whereas an isotype-matched irrelevant monoclonal antibody was used as negative control. For the maximum binding of ¹²⁵I-C5a, 36 μl of the binding buffer without the antibodies or C5a was used instead. Fifty microliters of the neutrophil suspension was added to each tube for incubation on ice. At the end of the 40-minute incubation period, the mixture from each tube was transferred to the top of 800 μl of a separation buffer (6% BSA in PBS) in another Eppendorf tube. The tubes were than centrifuged at 2000×g for 3 minutes at room temperature. After the supernatant was aspirated, the cell pellet was re-suspended in 0.5 ml of de-ionized water to lyse the cells. The cell lysate was then mixed with 3 ml of Ultima Gold scintillation fluid (Packard Instrument, Meriden, Conn.) for radioactive counting. The percent inhibition of ¹²⁵I-C5a binding is defined as: [Cpmₘₐₓ−Cpmbkg]−[Cpmca−Cpmbkg]/[Cpmₘₐₓ−Cpmbkg]×100 where: Cpmₘₐₓ=maximum count per minute without competing agents; Cpmbkg=background cpm without addition of ¹²⁵I-C5a; and Cpmca=cpm with competing agents.

IC50: 30 nM
B1: human C5a (ligand, UniProt P01031 678-751, looked up)
chain: TLQKKIEEIAAKYKHSVVKKCCYDGACVNNDETCEQRAARISLGPRCIKAFTECCVVASQLRANISHKDMQLGR
notes: domain: C5a; Bought recombinant protein; also called recombinant C5a (Sigma); purified recombinant human C5a
